Measured values as given in PMC2965767, “Identification and Genome-Wide Prediction of DNA Binding Specificities for the ApiAP2 Family of Regulators from the Malaria Parasite”.

T1: PFD0985w D2ext (ApiAP2) (Plasmodium falciparum, UniProt Q8I1N6 3258-3362)
T1 sequence: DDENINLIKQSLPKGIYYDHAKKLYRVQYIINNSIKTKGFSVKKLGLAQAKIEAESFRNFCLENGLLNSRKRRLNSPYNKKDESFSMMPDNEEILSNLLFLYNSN

T2: PFL1085w D1ext (PF3D7_1222600, AP2 domain transcription factor AP2-G) (Plasmodium falciparum) (UniProt Q8I5I9)
T2 sequence: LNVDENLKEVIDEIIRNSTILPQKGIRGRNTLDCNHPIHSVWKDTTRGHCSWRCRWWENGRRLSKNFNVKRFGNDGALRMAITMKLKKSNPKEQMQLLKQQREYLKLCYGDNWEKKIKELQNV

T3: PFL1075w D1 (PF3D7_1222400, AP2 domain transcription factor) (Plasmodium falciparum) (UniProt Q8I5J1)
T3 sequence: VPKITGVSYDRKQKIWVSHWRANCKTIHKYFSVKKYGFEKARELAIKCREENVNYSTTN

T4: PFL1900w DLD (PF3D7_1239200, AP2 domain transcription factor, putative) (Plasmodium falciparum) (UniProt Q8I531)
T4 sequence: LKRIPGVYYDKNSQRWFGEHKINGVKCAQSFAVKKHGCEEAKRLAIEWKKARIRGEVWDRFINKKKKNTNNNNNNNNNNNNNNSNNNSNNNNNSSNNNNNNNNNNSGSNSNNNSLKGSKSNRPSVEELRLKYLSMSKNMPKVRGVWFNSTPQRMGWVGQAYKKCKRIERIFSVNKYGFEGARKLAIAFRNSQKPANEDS

T5: PF13_0097 D1 (PF3D7_1317200, AP2 domain transcription factor AP2-FG, putative) (Plasmodium falciparum) (UniProt Q8IEE4)
T5 sequence: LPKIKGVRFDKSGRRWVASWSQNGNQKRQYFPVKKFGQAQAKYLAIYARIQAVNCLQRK

T6: PF10_0075 D1ext (PF3D7_1007700, AP2 domain transcription factor AP2-I) (Plasmodium falciparum) (UniProt Q8IJW6)
T6 sequence: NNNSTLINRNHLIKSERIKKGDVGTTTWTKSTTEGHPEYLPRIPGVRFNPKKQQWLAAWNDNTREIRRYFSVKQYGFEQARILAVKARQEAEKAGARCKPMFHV

T7: PF13_0267 D1 (PF3D7_1350900, AP2 domain transcription factor AP2-O4, putative) (Plasmodium falciparum) (UniProt A0A5K1K8Z4)
T7 sequence: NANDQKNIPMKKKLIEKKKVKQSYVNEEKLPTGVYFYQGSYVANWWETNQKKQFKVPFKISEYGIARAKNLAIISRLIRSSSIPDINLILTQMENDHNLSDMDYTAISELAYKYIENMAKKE

T8: PF11_0404 D1 (PF3D7_1139300, AP2 domain transcription factor, putative) (Plasmodium falciparum) (UniProt Q8IHX2)
T8 sequence: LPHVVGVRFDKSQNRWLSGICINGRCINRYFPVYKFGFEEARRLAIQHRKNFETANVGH

T9: PF14_0633 D1 (PF3D7_1466400, AP2 domain transcription factor AP2-EXP) (Plasmodium falciparum) (UniProt Q8IKH2)
T9 sequence: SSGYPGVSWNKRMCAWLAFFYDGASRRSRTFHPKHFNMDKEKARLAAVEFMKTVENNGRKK

T10: PFF0200c D1 (PF3D7_0604100, AP2 domain transcription factor) (Plasmodium falciparum) (UniProt C6KSN9)
T10 sequence: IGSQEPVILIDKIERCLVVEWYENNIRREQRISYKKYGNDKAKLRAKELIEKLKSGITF

T11: PFD0985w D2ext (ApiAP2) (Plasmodium falciparum) (UniProt Q8I1N6)
T11 sequence: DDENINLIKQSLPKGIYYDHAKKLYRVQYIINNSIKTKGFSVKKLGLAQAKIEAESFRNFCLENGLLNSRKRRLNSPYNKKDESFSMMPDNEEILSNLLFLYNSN

T12: PFF0670w D2ext (PF3D7_0613800, AP2 domain transcription factor, putative) (Plasmodium falciparum) (UniProt C6KSY0)
T12 sequence: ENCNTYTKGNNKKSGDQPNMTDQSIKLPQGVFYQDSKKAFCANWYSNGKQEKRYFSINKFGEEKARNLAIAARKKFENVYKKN

T13: PF10_0075 D3ext (PF3D7_1007700, AP2 domain transcription factor AP2-I) (Plasmodium falciparum) (UniProt Q8IJW6)
T13 sequence: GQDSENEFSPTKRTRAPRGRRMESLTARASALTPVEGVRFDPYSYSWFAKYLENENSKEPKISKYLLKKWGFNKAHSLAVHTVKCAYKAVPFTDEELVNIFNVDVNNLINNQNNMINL

T14: PF14_0533 D1 (PF3D7_1456000, AP2 domain transcription factor, putative) (Plasmodium falciparum) (UniProt Q8IKR9)
T14 sequence: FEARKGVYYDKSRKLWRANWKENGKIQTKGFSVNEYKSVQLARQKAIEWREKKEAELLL

B1: No motif (dsDNA)
DNA 1: AATATTATAATAGTCGTAGCCATCAATAAAAAAAAATGGTAATATAGATTTTCGTTTATATT
DNA 2: AATATAAACGAAAATCTATATTACCATTTTTTTTTATTGATGGCTACGACTATTATAATATT
B2: PFD0985w_D2-1 (motif rank) (dsDNA)
DNA 1: AATATTATAATAGTCGTAGCCATCAATGTGTAACACATGGTAATATAGATTTTCGTTTATATT
DNA 2: AATATAAACGAAAATCTATATTACCATGTGTTACACATTGATGGCTACGACTATTATAATATT
B3: PFD0985w_D2-2 (motif rank) (dsDNA)
DNA 1: AATATTATAATAGTCGTAGCCATCAATCCACACACCATGGTAATATAGATTTTCGTTTATATT
DNA 2: AATATAAACGAAAATCTATATTACCATGGTGTGTGGATTGATGGCTACGACTATTATAATATT
B4: msp10 (dsDNA)
DNA 1: TCAACAATTATTATATAATTAATTAGAAGTGCATTAGGTAACAACTGTCGAATAAATATAT
DNA 2: ATATATTTATTCGACAGTTGTTACCTAATGCACTTCTAATTAATTATATAATAATTGTTGA
B5: msp1 (dsDNA)
DNA 1: AAATTGTGTAAATTCATATTCGATAAAGTGCATTAATTTTATTTATCAATTGTAAACATA
DNA 2: TATGTTTACAATTGATAAATAAAATTAATGCACTTTATCGAATATGAATTTACACAATTT
B6: rhopH3 (dsDNA)
DNA 1: ATTAATTTAATATGTACGCAAGGTGCACACTGGTGCATTAAAAAAAAAATATATATTAAT
DNA 2: ATTAATATATATTTTTTTTTTAATGCACCAGTGTGCACCTTGCGTACATATTAAATTAAT

target: T1, PFD0985w D2ext (ApiAP2); assay: EMSA; 5 mM MgCl2 with 10 mM EDTA; LightShift buffer, 2.5% glycerol, 50 mM KCl, 0.05% NP-40, 50 ng/uL poly(dI-dC); room temperature, 20 min; conditions: tags: N-terminal GST (pGEX-4T1), kept; label: 5' biotin

Molecule	binding result
B1	no binding
B2	binds
B3	binds

target: PF10_0075 D3ext (PF3D7_1007700, AP2 domain transcription factor AP2-I) (Plasmodium falciparum, UniProt Q8IJW6 910-1027); assay: as above; conditions: tags: N-terminal GST (pGEX-4T1), kept; label: 5' biotin

Molecule	binding result
B4	binds
B5	binds
B6	binds

target: T2, PFL1085w D1ext (PF3D7_1222600, AP2 domain transcription factor AP2-G) (Plasmodium falciparum); assay: not given; conditions: PBM; highest protein concentration obtained; buffer not given; scale: PBM E-score of the seed 8-mer

Molecule	binding signal
GTACTACT (double strand) [PFL1085w Secondary motif 1]	> 0.45
GTGGTC (double strand) [PFL1085w Secondary motif 2]	> 0.45
GTGTAC (double strand) [PFL1085w primary motif]	0.49

target: T3, PFL1075w D1 (PF3D7_1222400, AP2 domain transcription factor) (Plasmodium falciparum); assay: not given; conditions: PBM; highest protein concentration obtained; buffer not given; scale: PBM E-score of the seed 8-mer

Molecule	binding signal
CTGTATAA (double strand) [PFL1075w Secondary motif 2]	> 0.45
TATATAGC (double strand) [PFL1075w Secondary motif 1]	> 0.45
TATATATA (double strand) [PFL1075w primary motif]	0.499

target: T4, PFL1900w DLD (PF3D7_1239200, AP2 domain transcription factor, putative) (Plasmodium falciparum); assay: not given; conditions: PBM; highest protein concentration obtained; buffer not given; scale: PBM E-score of the seed 8-mer

Molecule	binding signal
ACCGCGGT (double strand) [PFL1900w_DLD Secondary motif 2]	> 0.45
ACRACATC / GATGTYGT [PFL1900w_DLD Secondary motif 1]	> 0.45
TCTACAA (double strand) [PFL1900w_DLD primary motif]	0.468

target: T5, PF13_0097 D1 (PF3D7_1317200, AP2 domain transcription factor AP2-FG, putative) (Plasmodium falciparum); assay: not given; conditions: PBM; highest protein concentration obtained; buffer not given; scale: PBM E-score of the seed 8-mer

Molecule	binding signal
AGCTCAGA (double strand) [PF13_0097 primary motif]	0.489
TCACYCAR / YTGRGTGA [PF13_0097 Secondary motif 3]	> 0.45
TGATCM / KGATCA [PF13_0097 Secondary motif 2]	> 0.45
TGCTCAA (double strand) [PF13_0097 Secondary motif 1]	> 0.45

target: T6, PF10_0075 D1ext (PF3D7_1007700, AP2 domain transcription factor AP2-I) (Plasmodium falciparum); assay: not given; conditions: PBM; highest protein concentration obtained; buffer not given; scale: PBM E-score of the seed 8-mer

Molecule	binding signal
GGGTCGACCC (double strand) [PF10_0075_D1 primary motif]	0.495
GGTTCCGA (double strand) [PF10_0075_D1 Secondary motif 5]	> 0.45
GTCGCGAC (double strand) [PF10_0075_D1 Secondary motif 3]	> 0.45
RGGTCGTTA / TAACGACCY [PF10_0075_D1 Secondary motif 2]	> 0.45
TCGGKGCA / TGCMCCGA [PF10_0075_D1 Secondary motif 1]	> 0.45

target: T7, PF13_0267 D1 (PF3D7_1350900, AP2 domain transcription factor AP2-O4, putative) (Plasmodium falciparum); assay: not given; conditions: PBM; highest protein concentration obtained; buffer not given; scale: PBM E-score of the seed 8-mer

Molecule	binding signal
ACCTAA (double strand) [PF13_0267 Secondary motif 2]	> 0.45
ATTCTAGAA (double strand) [PF13_0267 primary motif]	0.479
CTANTAG (double strand) [PF13_0267 Secondary motif 1]	> 0.45

target: T8, PF11_0404 D1 (PF3D7_1139300, AP2 domain transcription factor, putative) (Plasmodium falciparum); assay: not given; conditions: PBM; highest protein concentration obtained; buffer not given; scale: PBM E-score of the seed 8-mer

Molecule	binding signal
TAGAACAA (double strand) [PF11_0404_D1 primary motif]	0.485
TAGATCGA (double strand) [PF11_0404_D1 Secondary motif 1]	> 0.45

target: T9, PF14_0633 D1 (PF3D7_1466400, AP2 domain transcription factor AP2-EXP) (Plasmodium falciparum); assay: not given; conditions: PBM; highest protein concentration obtained; buffer not given; scale: PBM E-score of the seed 8-mer

Molecule	binding signal
ARCATGCA / TGCATGYT [PF14_0633 Secondary motif 1]	> 0.45
GCATGC (double strand) [PF14_0633 primary motif]	0.5

target: T10, PFF0200c D1 (PF3D7_0604100, AP2 domain transcription factor) (Plasmodium falciparum); assay: not given; conditions: PBM; highest protein concentration obtained; buffer not given; scale: PBM E-score of the seed 8-mer

Molecule	binding signal
CMTGCACCMC / GKGGTGCAKG [PFF0200c_D1 Secondary motif 1]	> 0.45
MCGCACCC / GGGTGCGK [PFF0200c_D1 Secondary motif 2]	> 0.45
WGTGCACTRNA / TNYAGTGCACW [PFF0200c_D1 Secondary motif 3]	> 0.45

target: T11, PFD0985w D2ext (ApiAP2) (Plasmodium falciparum); assay: not given; conditions: PBM; highest protein concentration obtained; buffer not given; scale: PBM E-score of the seed 8-mer

Molecule	binding signal
CCACACAC (double strand) [PFD0985w_D2 Secondary motif 3]	> 0.45
GTGTTACAC (double strand) [PFD0985w_D2 primary motif]	0.496
GTGYNYACAC / GTGTRNRCAC [PFD0985w_D2 Secondary motif 2]	> 0.45
WATTWCAC (double strand) [PFD0985w_D2 Secondary motif 1]	> 0.45

target: T12, PFF0670w D2ext (PF3D7_0613800, AP2 domain transcription factor, putative) (Plasmodium falciparum); assay: not given; conditions: PBM; highest protein concentration obtained; buffer not given; scale: PBM E-score of the seed 8-mer

Molecule	binding signal
AAGATCTT (double strand) [PFF0670w_D2 Secondary motif 2]	> 0.45
ACCTAGGT (double strand) [PFF0670w_D2 Secondary motif 1]	> 0.45
CTCTAGAG (double strand) [PFF0670w_D2 primary motif]	0.495

target: T13, PF10_0075 D3ext (PF3D7_1007700, AP2 domain transcription factor AP2-I) (Plasmodium falciparum); assay: not given; conditions: PBM; highest protein concentration obtained; buffer not given; scale: PBM E-score of the seed 8-mer

Molecule	binding signal
ATATGCAC (double strand) [PF10_0075_D3 Secondary motif 3]	> 0.45
GTGCAA (double strand) [PF10_0075_D3 Secondary motif 4]	> 0.45
GTGCACTA (double strand) [PF10_0075_D3 primary motif]	0.496
GTGCGCAC (double strand) [PF10_0075_D3 Secondary motif 1]	> 0.45
GTGCGKTA / TAMCGCAC [PF10_0075_D3 Secondary motif 2]	> 0.45

target: T14, PF14_0533 D1 (PF3D7_1456000, AP2 domain transcription factor, putative) (Plasmodium falciparum); assay: not given; conditions: PBM; highest protein concentration obtained; buffer not given; scale: PBM E-score of the seed 8-mer

Molecule	binding signal
CACACACAC (double strand) [PF14_0533 primary motif]	0.5
GTGTGCA (double strand) [PF14_0533 Secondary motif 1]	> 0.45
